Assay results: the DeepSol protein solubility set

Test: soluble on expression in E. coli; label from the status in PepcDB or PDB records

Sequence | soluble on expression in E. coli
MQQASHPTVILGGGFAGLFTALHLSQQNYSYPIILIEQRDRFSFKPLLYELLSGELHSQQVYPRYQELLAGSKVKFVQDTVQSIDIHQQRVDTVSGQAFHYSNLILALGSKTTYFATPGAAEYAMPFTSGEQAIALRQHLRHKLYQAIQTSDSERRRLLLTVAIIGAGPSGIELACTLADLLPIWYDELGGDGSEIHVVLVNRSREILKGDVNSHLRCTVERAMKNRLIPVDFLFDAAVTKITPDGVECRRHGQIQMLQAGTIAWTAGTAPHPLLMELPVSQNRGRLLVKPTLQLSNFPEIFAAGDCATDSDHPQPPTAQVAYQQGIAIAQNLQRISQNKPTIPVQLEHHHHHH | not soluble
MSLDNTEQEKFETYDLDVETVYCRPIIKFPLLLIHAYRVYLALNDHNDIEPRLHSDRLLEIFDPLINGDEQSVKLFIETLWQVRYQFDRWVVKWVERDDATDAQLGLTYQSRSKSNDTYYINRTQKELTDIVLLQSVRNFTGERSAQYWLTPFLSGLIRSSIKQDSVALELLENIDNKMSLSVDTQKEASFALAEGIEPNCQSWQSQSTYFAKSLGTSFEHYWFQKLEYLIWKKMKASESSLPSEELNKFKKYRITSKNSVEHVHPQNDEYNSRLDCETLNSFGNLVLLSPGENSSYSNQDVDKKRIDFERKSHFDALKLREIFGVKGQGLWGKQQIDNHLEDMMAVFAQHYKEGHHHHHH | not soluble
QTPPRLVAIGGLSGSGKTTIAEALAAHVGAPPGARIVESDRIRKAMHGVPAETRLPDNAYRPDVSDRVYNEMTWRAGLILSEGGSVVADAVFDRPADRERIEKAARDRGIPFFGFWLEADPLVLWQRVSERKGGPSDATVDILSRQLQRKAG | not soluble
KEAIVFSQKTTIDQLHNSLNAASKTGNSNEVLQDPHIGDMYGSVTPLRPQVTRMLGKYAKEKEDMLSLRQVLANAERSYNQLMDRAAN | soluble
MAKRKGKGTRSESNRNLEELRRKAVEIVKRLEKVYLNPRLELEYENAFQLLVMAILAAQESDKVVNKVSKEFFKKYKTPQDIARANLEELEEDLKHINFYRRKAKLIKECCEKLIELYKGEVPKSVGELVKLPGVGRKTANMVIGGAYNLPAIIVDRHVHRVVERISLSKQKNPDKMEMELSEIVPQELWTKFSLLLLNHGKTICKARNPECEKCPILDLCEYGQKNLKGRK | soluble
MTTLFISDLHLDPARPAITELFLDFLRTQVPGSDALYILGDLFEAWIGDDTPSTAADAVAEALHAVATTGVPVFFMPGNRDFLVGAAYAQRAGFRILPDPTVIDLYGQPTLLMHGDLLCTDDTAYQAFRAQTRDPAFQAQFLSQPLAARVAFAQQARAASHARQSELKQGDQAQFETVTDVAPAEVDATFVRYGLDRIIHGHTHRPAIHTVQAGGRTCTRVVLGDWYEQGSVLRVDADGLALEQLALLEHHHHHH | soluble
MIKIYNRKTKAYDVEQVAGLKYINWSYASPIGKSFLELFIKKKMFSKLYGNFCDSSLSKKKIKAFIDEFNIDMSLCNKNIDEFENFNDFFARTLTPEARPIDYSENILISPGDGRLSAFENIDLDKVVQIKGYTYSLKELIDDPKVAEEFEGGTCLILRLCPTDYHRFHFVDSGTCSESKKISGFYYSVNPIALNNVSELFCKNKREWSIFNSDNFGEILHVEVGATCVGTILQTYSPEKRVKKGEEKGYFKFGGSTTILFFKKDTIKIDSDIVEQTKLGFETKVNMGETIGHKLEHHHHHH | soluble
VEPVPDTHLRGITCLDHENEKVNMYCVSDDQLICALCKLVGRHRDHQVASLNDRFEKLKQTLEMNLTNLVK | soluble
MSLVMGQEKLYIEKELSWLSFNERVLQEAADKSNPLIERMRFLGIYSNNLDEFYKVRFAELKRRIIISEEQGSNAHSRHLLGKIQSRVLKADQEFDGLYNELLLEMARNQIFLINERQLSVNQQNWLRHYFKQYLRQHITPILINPDTDLVQFLKDDYTYLAVEIIRSDSIRYALLEIPSDKVPRFVNLPPEAPRRRKPMILLDNILRYCLDDIFKGFFDYDALNAYSMKMTRDAEYDLVHEMEASLMELMSSSLKQRLTAEPVRFVYQRDMPNALVEVLREKLTISRYDSIVPGGRYHNFKDFINFPNVGKANLVNKPLPRLRHIWFDKAQFRNGFDAIRERDVLLYYPYHTFEHVLELLRQASFDPSVLAIKINIYRVAKDSRIIDSMIHAAHNGKKVTVVVELQARFDEEANIHWAKRLTEAGVHVIFSAPGLKIHAKLFLISRKENGEVVRYAHIGTGNFNEKTARLYTDYSLLTADARITNEVRRVFNFIENPYRPVTFDYLMVSPQNSRRLLYEMVDREIANAQQGLPSGITLKLNNLVDKGLVDRLYAASSSGVPVNLLVRGMCSLIPNLEGISDNIRAISIVDRYLEHDRVYIFENGGDKKVYLSSADWMTRNIDYRIEVATPLLDPRLKQRVLDIIDILFSDTVKARYIDKELSNRYVPRGNRRKVRAQLAIYDYIKSLEQPEEGHHHHHH | soluble
TDQAAFDTNIVTLTRFVMEEGRKARGTGEMTQLLNSLCTAVKAISTAVRKAGIAHLWGIAGSTNVTGDQVKKLDVLSNDLVINVLKSSFATCVLVSEEDKNAIIVEPEKRGKYVVCFDPLDGSSNIDCLVSIGTIFGIYRKNSTDEPSEKDALQPGRNLVAAGYALYGSATMLVLAMVNGVNCFMLDPAIGEFILVDRDVKIKKKGSIYSINEGYAKEFDPAITEYIQRKKFPPDNSAPYGARYVGSMVADVHRTLVYGGIFMYPANKKSPKGKLRLLYECNPMAYVMEKAGGLATTGKEAVLDIVPTDIHQRAPIILGSPEDVTELLEIYQKHAAK | soluble
MAKELCFEGITLKAFDEQYRSAINDFDLNERQQIYSSLPKEVIDDAINDVDRIANVAINDKNEVVGFFVLHRYYQHEGYDTPENVVYIRSLSINEKYQGFGYGTKIMMSLPQYVQGVFPDFNHLYLVVDAENDNAWNLYERAGFMHTATKEEGPIGKERLYYLDLDSKHVSSLKLEEESRSEVTNVHIINLMIDGQKVGFIALEQIGERMNIAAIEVDKSYRFNGIGSSALRQLPTYLRKNYDNLNVITMILFGENNDFKPLCLNSNFVEIEQTDDYVVFEKYLNY | not soluble
MFPFGHKGQKIKGTMVVMQKNVLDINSITSVDGIVGTGLDFLGSALDTVTFLASSISIQLISATKADGGKGKVGKATNLRGKITLPTIGAKEEAYDAQFDWDSDFGIPGAFYIKNYMQNEFYLKSLILEDIPNHGTIHFICNSWVYNSKHYKTDRIFFANNTYLPSETPAPLVKYREEELKNVRGDGTGERKEWDRIYDYDVYNDLGDPDKGEKYARPVLGGSALPYPRRGRTGRGKTRKDPNSEKPGDFVYLPRDEAFGHLKSSDFLAYGIKSVAQDVLPVLTDAFDGNLLSLDFDNFAEVRKLYEGGVTLPTNFLSNITPIPIIKELFRTDGEQFLKYPPPKVMQVDKSAWMTDEEFARETIAGLNPNVIKIIEEFPLSSKLDTQAYGDHTCIITKEHLEPNLGGLTVEQAIQNKKLFILDHHDYLIPYLRKINANTTKTYATRTIFFLKNDGTLTPLAIELSKPHPQGEEYGPVSEVYVPSSEGVEAYIWLLAKAYVVVNDACYHQIISHWLNTHAVVEPFVIATNRHLSVVHPIYKLLFPHYRDTMNINSLARKSLVNADGIIEKTFLWGRYSLEMSAVIYKDWVFTDQALPNDLVKRGVAVKDPSAPHGVRLLIEDYPYASDGLEIWDAIKSWVEEYVSFYYKSDEELQKDPELQAWWKELVEVGHGDLKDKPWWQKMQTREELVEASATLIWIASALHAAVNFGQYPYGGLILNRPTISRRFMPEKGSPEYDALAKNPEKEFLKTITGKKETLIDLTIIEILSRHASDEFYLGQRDGGDYWTSDAGPLEAFKRFGKNLEEIEKKLIEKNNDETLRNRYGPAKMPYTLLYPSSEEGLTFRGIPNSISI | soluble
MVGIQVQEVMTDKYAKIDISAPLSEAIGIIEKEDPDLILVFDDNVYKGVLTQDLIIRSHLKWDPTKAKVRDIYKPAPVVKPTDDLSHAAKLLLETDLRSLPVGENKAEIIGVISDIALLERVVAEEFGKKKVEEFMTKDVITLTPDDTVAKALAVMRDHGISRIPIVNEEGKLEGLVTLHDLILRFIKPRFKAQTGELVGEKIPPFSMKLREAMIRGVITILPTATVREAVATMKDNDIDGLVVVDEGNKVVGILTVKDLLLPISRMVEKEAKFYLQLGGDASALSDFTRERIINDIKKFVDGYSDLLGNEGIIYLYIRRFNEKFRGVHLYQARMRIVTDKGVFIARGETWGAIQAVHDAIRAIERQLLQKAELERDIRYAKRFIEKLELWR | soluble
MLPRTMAADEGHVPGRFDAVIVGGGHNGLVAAAYLARAGRSVLVLERLGNTGGAAVSTRPFAGVDARLSRYSYLVSLLPRKIVRDLGLDFRVRGRTVSSYTPAERHGRPTGLLVGGGERRTREAFGRLTGSAREYESWQRFYGMTGRVARQVFPTLTEPLPSRDELRRRVDDEDAWRVLFEEPIGAAIEENFTDDLVRGVVLTDALIGTFADAHDPSLRQNRCFLYHIIGGGTGAWDVPVGGMGALTDALAAAARDAGAVLATGHEAVRIETDGRSAEVTYRDADGEGTVSARHVLVNAAPQELARLTGDSPPVPAEGAQLKVNMLLKRLPALRDTAVDPREAFAGTFHIAEGYEQLAAAHAQAAAGSLPEAPPSEIYCHSLTDPTILGPDLVEQGYQTLTLFGLHTPARLFERDNEGVREELLKSTLAQLDAHLAEPLVDCLATDAEGRPCIEAKSPLDLERDLRLPGGNIFHRDLAFPYAQEGTGRWGVETAHANVLLCGAGAVRGGGVSGVPGHNAAMAALEDVGERALGLEHHHHHH | not soluble
MEKGYRLLERIELGEPKNCYEKVVSHKHLIESIHLHLADLLNTHSGNAMIDSEYGLPDFNDVLSNNTNLVRHIQKNITATIERFEPRLLNVEVHYREDHHNPLQLGFGIRGEVSHNGGKVPMSIDVYMGTD | not soluble
MGLFDGLLGNATQNNNETAEKELRDVLIPNEKVDMAFTLVRDLIVFTDKRLILVDKQGITGKKVDYKSIPYKSISRFSVETSGHFDLDAELKIWISSTELPSVSLQFRKDKDIVAIQQALAAAVLS | not soluble
MLARSARLLHSAELAANAIRAASGAPATAAAAEASFPSTDDVAAKTKKTGNRIKTFEIYRFNPEAPGAKPTVQKFDVDLDQCGTMILDALIKIKNEVDPTLTFRRSCREGICGSCAMNIGGQNTLACICKIDSDTSKSTKIYPLPHMFVVKDLVPDMNLFYAQYASIQPWIQKKTPLTLGEKQMHQSVAERDRLDGLYECILCACCSTSCPSYWWNADKYLGPAVLMQAYRWVIDSRDDYATERLHRMHDSFSAFKCHTIMNCTKTCPKHLNPAKAIGEIKSLLTGFTSKPAAEPSAF | not soluble
QVQLQQSGAELMKPGASVKISCKATGYTFSSFWIEWVKQRPGHGLEWIGEILPGSGGTHYNEKFKGKATFTADKSSNTAYMQLSSLTSEDSAVYYCARGHSYYFYDGDYWGQGTSVTVSSASTKGPSVFPLAPSSKSTSGGTAALGCLVKDYFPEPVTVSWNSGALTSGVHTFPAVLQSSGLYSLSSVVTVPSSSLGTQTYICNVNHKPSNTKVDKKVEPK | soluble
